Read-outs that look alike come from different tables or passages of the source.
How the values were obtained:
[1] = biological target: T1, recombinant BNIP3 (BCL-2 adenovirus E1B 19 kDa interacting protein-3) (mouse, UniProt O55003 1-187, limits assumed, labelled with DyLight 650 for the microarray); test: peptide microarray, immobilised peptide, labelled recombinant BNIP3 in solution
T1 construct: Bought recombinant protein (cusabio); also called recombinant BNIP3 (cusabio)
Method: (§1) Interaction studies. For protein-peptide interaction studies, peptide libraries were synthesised and immobilised on microarray slides.
(§2) Microarray. […] As labelling kit a DyLight Microscale Antibody Labeling Kit (Thermo) with label Dylight 650 was used. The assay was performed using the automated TECAN HS4800 microarray processing station. Microarrays were incubated with customer provided samples diluted in blocking buffer for 2 h at 30° C. Before each step, microarrays were washed with washing buffer. Microarrays were scanned using a high-resolution fluorescence scanner. Laser settings and applied resolution were identical for all performed measurements. The resulting images were analyzed und quantified using spot-recognition software GenePix (Molecular Devices). […] For further data evaluation, the so called MMC2 values were determined. The MMC2 equals the mean value of all three instances on the microarray except when the coefficient of variation (CV)—standard-deviation divided by the mean value—is larger 0.5. In this case the mean of the two closest values (MC2) is assigned to MMC2. All steps were performed by JPT Peptide Technologies (Berlin, Germany).

[2] = biological target: T1, recombinant BNIP3 (BCL-2 adenovirus E1B …); test: as above; remark: listed apart in the source
Method: as §1, §2

Row | Binder | Fluorescence intensity [1] | Fluorescence intensity [2]
1 | MSQSGEENLQGSWVELHFSN (Peptide immobilised on the microarray; also called BNIP3 1-20) [BNIP3-20A peptide sequence MSQSGEENLQGSWVELHFSN (BNIP3 amino acids 1-20, wild type)] | 1040 arbitrary units | 1040 arbitrary units
2 | MSQSGEENLQGCWVELHFSN (Peptide immobilised on a microarray slide; attachment chemistry not stated., Peptide immobilised on the microarray) [substituted BNIP3-20A peptide MSQSGEENLQGCWVELHFSN (S12 -> C)] | – | 7040 arbitrary units
3 | MSQSGEENLQGSWVELYFSN (Peptide immobilised on a microarray slide; attachment chemistry not stated., Peptide immobilised on the microarray) [substituted BNIP3-20A peptide MSQSGEENLQGSWVELYFSN (H17 -> Y)] | – | 7990 arbitrary units
4 | MSQSGEENLQGSWVELCFSN (Peptide immobilised on a microarray slide; attachment chemistry not stated., Peptide immobilised on the microarray) [substituted BNIP3-20A peptide MSQSGEENLQGSWVELCFSN (H17 -> C)] | – | 6790 arbitrary units
5 | MSQSGEENLQGSWVCLHFSN (Peptide immobilised on a microarray slide; attachment chemistry not stated., Peptide immobilised on the microarray) [substituted BNIP3-20A peptide MSQSGEENLQGSWVCLHFSN (E15 -> C)] | – | 7150 arbitrary units
6 | MSQSGEENLQGSWVELHFFN (Peptide immobilised on the microarray) [substituted BNIP3-20A peptide MSQSGEENLQGSWVELHFFN (S19 -> F)] | – | 15000 arbitrary units

The remaining lines, values ahead:

Row | Fluorescence intensity [1] | Fluorescence intensity [2] | Binder
7 | 4890 arbitrary units | – | SWVELHFSN (Peptide immobilised on the microarray; also called BNIP3 12-20) [truncated BNIP3-20A fragment SWVELHFSN]
8 | – | 13100 arbitrary units | MSQSGYENLQGSWVELHFSN (Peptide immobilised on a microarray slide; attachment chemistry not stated., Peptide immobilised on the microarray) [substituted BNIP3-20A peptide MSQSGYENLQGSWVELHFSN (E6 -> Y)]
9 | – | 10200 arbitrary units | MSQSGEENLQYSWVELHFSN (Peptide immobilised on a microarray slide; attachment chemistry not stated., Peptide immobilised on the microarray) [substituted BNIP3-20A peptide MSQSGEENLQYSWVELHFSN (G11 -> Y)]
10 | 2660 arbitrary units | – | SGEENLQGSWVELHFSN (Peptide immobilised on the microarray; also called BNIP3 4-20) [truncated BNIP3-20A fragment SGEENLQGSWVELHFSN]
11 | 14400 arbitrary units | – | WVELHFSN (Peptide immobilised on the microarray; also called BNIP3 13-20) [truncated BNIP3-20A fragment WVELHFSN]
